The text below walks through data of patent US20090117613A1, “Method for redox reaction using an old yellow enzyme” (priority 2007, published 2009).

The nature of series [1]: Reductase activity using cyclohexenone as substrate. It counts as biochemical. The note with it: for reductase activity (saturation of cyclohexenone): 30, 50, and 70° C.
Protocol: (§1) The desaturation reaction was carried out using cyclohexanone with all three enzymes at 30, 50, and 70° C. The reductase activity using cyclohexenone as substrate was also measured under similar conditions.
Series [2] is described as follows: Reduction of carvone to dihydrocarvone. It is filed as biochemical. The note with it: cyclohexenone and carvone as substrates. How it is done: The sample for the reduction reaction contained: 500 μL protein solution+(+)Carvone (˜1.5 μL)+200 μL GDH 102 (10 mg/mL) and Glucose (200 mM)+100 μL NADPH (10 mM). The final volume of the reaction was 800 μL. The reaction was carried out for 24 h at various temperatures (see table 2).

Series [3] in a line: Desaturation of cyclohexanone to cyclohex-2-enone and phenol. The note with it: 30, 50, and 70° C.
Protocol: The reaction sample contained 500 μL protein solution and 10 mM Cyclohexanone (˜1 μL). The final volume of the reaction was ˜500 μL. The reaction was carried out at 70° C. for 24 hours.
as §1
Series [4] in a line: GkOYE-catalyzed desaturation of testosterone to boldenone (HPLC/MS). It is filed as biochemical. The note with it: 30-70° C., varied in 5° C. increments.

B1: OPR3: OPR3 (tomato) recombinant OYE, expression clone from TU-Graz (protein, UniProt Q9FEW9 1-396, looked up)
12-oxophytodienoate reductase …: MASSAQDGNNPLFSPYKMGKFNLSHRVVLAPMTRCRALNNIPQAALGEYYEQRATAGGFLITEGTMISPTSAGFPHVPGIFTKEQVREWKKIVDVVHAKGAVIFCQLWHVGRASHEVYQPAGAAPISSTEKPISNRWRILMPDGTHGIYPKPRAIGTYEISQVVEDYRRSALNAIEAGFDGIEIHGAHGYLIDQFLKDGINDRTDEYGGSLANRCKFITQVVQAVVSAIGADRVGVRVSPAIDHLDAMDSNPLSLGLAVVERLNKIQLHSGSKLAYLHVTQPRYVAYGQTEAGRLGSEEEEARLMRTLRNAYQGTFICSGGYTRELGIEAVAQGDADLVSYGRLFISNPDLVMRIKLNAPLNKYNRKTFYTQDPVVGYTDYPFLQGNGSNGPLSRL
Consider B1, for which the “reductase activity (saturation of cyclohexenone)” value in series [1] was “almost inactive at 50 °C”. In addition, the “stereoselectivity of reductase activity” value in series [2] is recorded as “comparable to GkOYE”. Also, the desaturation of cyclohexanone entry in series [3] was “no desaturation was observed”.

B2: YqjM: Homologous OYE from Bacillus subtilis (similarity: 80%), expression clone from TU-Graz (protein, UniProt P54550 2-338, looked up)
NADPH dehydrogenase: ARKLFTPITIKDMTLKNRIVMSPMCMYSSHEKDGKLTPFHMAHYISRAIGQVGLIIVEASAVNPQGRITDQDLGIWSDEHIEGFAKLTEQVKEQGSKIGIQLAHAGRKAELEGDIFAPSAIAFDEQSATPVEMSAEKVKETVQEFKQAAARAKEAGFDVIEIHAAHGYLIHEFLSPLSNHRTDEYGGSPENRYRFLREIIDEVKQVWDGPLFVRVSASDYTDKGLDIADHIGFAKWMKEQGVDLIDCSSGALVHADINVFPGYQVSFAEKIREQADMATGAVGMITDGSMAEEILQNGRADLIFIGRELLRDPFFARTAAKQLNTEIPAPVQYERGW
For the molecule B2, the “reductase activity (saturation of cyclohexenone)” value in series [1] is on record as “significantly reduced reductase activity”. In addition, the enone reductase activity result in series [1] (70° C.) was “demonstrated”. Further, the “stereoselectivity of reductase activity” value in series [2] is recorded as “comparable to GkOYE”. For the same molecule, the “testosterone hydroxylation or desaturation (oxidized testosterone derivative)” value in series [4] is given as “no oxidized testosterone derivative is detected”. Besides, in series [3], the desaturation of cyclohexanone result is “no desaturation was observed”.
